± gives the standard deviation of the averaged measurements.
tested on: ATP; experiment: switch fluorescence ratio, 500 uM ATP over buffer (Cy3 cluster intensity, sum of 5 cycles each) (fold (ratio)); higher = stronger signal-on switching upon ATP binding; sequences stand for … in TCGTCGGCAGCGTCAGATGTGTATAAGAGACAGTTTTTTTTTTTTTTTTTTTTTTTTT…TC; details: aptamer strand: ATP DNA aptamer (quencher-CACCTGGGGGAGTATTGCGGAGGAAGG + anchor), 100 nM annealed; ATP concentration: 500 uM
How it was run: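 Cy3-labelled switching-strand clusters on a modified Illumina MiSeq flow-cell were annealed to 100 nM quencher-labelled ATP aptamer, imaged in selection buffer, then imaged after 15 min with 500 uM ATP at 22 °C. Five buffer/ATP cycles ran, with NaOH stripping and re-annealing between them. The fluorescence ratio is summed target-cycle over summed buffer-cycle Cy3 intensity per cluster, averaged per switch-domain sequence. Clusters outside 100-1000 RFU were excluded.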
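Also: ATP exposure 15 min at 22 °C before imaging.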

Sequence	switch fluorescence ratio
TTGGGACGAC	1.022 ± 0.0084
AAGTTAAGCC	1.01 ± 0.047
TGTTTTCAGT	0.975 ± 0.02
GGTTTGAGAA	1.018 ± 0.0031
AGAGGGTTTT	0.988 ± 0.031
TTTGGGCAAG	1.06 ± 0.043
TGGGGCCGTG	1.04 ± 0.04
AATATTTTTC	1.01 ± 0.015
ATATCCCTCG	1.01 ± 0.013
ACTTTGTCTG	0.991 ± 0.041
GCGCGATGGA	1.03 ± 0.019
TGTTGGAGCG	0.969 ± 0.011
GAGATCGGGG	1 ± 0.03
ACGACTAGGT	1.102 ± 0.008
AGGGTACAGT	1.04 ± 0.055
TGGGGGGATC	1.009 ± 0.0082
AAGGCGGGTA	1 ± 0.021
AATCCCTTTT	1 ± 0.031
TTTATGAAGC	1.06 ± 0.076
AGGGGGACTG	0.9635 ± 0.0022
TAGTTCTGGG	0.9428 ± 0.0012
TTGGGTTAAG	0.983 ± 0.015
ACCATCGATA	1.03 ± 0.024
GTATGAAGTT	0.982 ± 0.028
AAATATATCT	0.987 ± 0.012

Sequence	switch fluorescence ratio
GGTCCAATTA	0.977 ± 0.015
AAGTGTTAG	0.966 ± 0.011
TTAAGCCTGT	0.969 ± 0.021
CCGGGATCAG	1.09 ± 0.035
ACGGAGGGGG	0.96 ± 0.042
AGCTATTTGC	0.983 ± 0.048
ATTAAAGTTA	1.01 ± 0.013
GATTCGGTCT	1.02 ± 0.058
GGCCCTAGTA	1 ± 0.059
CAGTGGAGCG	0.964 ± 0.058
GATTTCATAG	1.02 ± 0.063
GAAGTTGCCC	0.994 ± 0.028
TCTGTGCCTT	1.06 ± 0.069
TGGGACCTGG	1.07 ± 0.15
AGGGGGGCGA	1.01 ± 0.029
CCTACTTCCA	1.103 ± 0.0013
GGAACAGAGG	0.9769 ± 0.007
TTTAGGACGA	0.981 ± 0.017
GGGTAATTAC	1.048 ± 0.0053
GAATCTATTC	1.01 ± 0.061
ACTCATGTAA	1.03 ± 0.015
CGCCTCAGGT	1.46 ± 0.14
TGACCTGAGA	1.04 ± 0.021
GCGCGTCGCA	1.02 ± 0.025
ACCGTATGGC	1.02 ± 0.023

Sequence	switch fluorescence ratio
TATGTCCAGT	1.0009 ± 0.00027
ATTGGGTGTC	0.985 ± 0.039
ACGGGGTGGA	1 ± 0.037
ATTTAGGATG	1.01 ± 0.021
TCCAGACGGC	1 ± 0.013
GCTGGGAATG	0.98 ± 0.033
GTAGTATTTT	0.994 ± 0.028
TTTCAGAACT	1.0027 ± 0.00088
AGTGAGTAAC	0.9811 ± 0.0061
TCTTGAACTT	1 ± 0.018
GAAGTGAGGT	1.01 ± 0.016
ATGGTCTGCC	0.974 ± 0.02
TACTAACCTT	1.43 ± 0.18
AAAGGAAGAA	1.013 ± 0.0073
AAACTGATGC	1.03 ± 0.052
AGTGGAGCTG	1.02 ± 0.038
TTCCGAAATG	1.63 ± 0.17
TTGGAGAGTG	0.963 ± 0.021
GATAGATTTA	0.9977 ± 0.0033
GGGAGAAATT	1.02 ± 0.061
ATTTAACGGG	1.006 ± 0.0056
GTTAAGTAGC	0.971 ± 0.025
CCGGGGTAGG	1.04 ± 0.024
GTTTAAGAAA	0.998 ± 0.027
TTCGCAGGAT	1.1 ± 0.027

Sequence	switch fluorescence ratio
TTCTAATGAG	0.998 ± 0.019
AATTTTCGGA	0.991 ± 0.013
TAGGTAGTCT	1.02 ± 0.015
TTGTAGGGT	0.986 ± 0.014
GAATGGGTAA	1.02 ± 0.033
GCCCGGTCGG	0.953 ± 0.017
GTGGGAGTTG	0.969 ± 0.04
GCTTGCTCCG	4.46 ± 0.87
AGAGTAGTGT	0.99 ± 0.032
TTGGGTATTG	0.966 ± 0.034
CATGTGGGGT	0.992 ± 0.034
TAAAATGGGA	0.981 ± 0.027
GGGTAATTTG	1 ± 0.03
GTCGCAAGGG	1.15 ± 0.021
TGCGCTATGT	1.07 ± 0.022
GCAACTATT	2.42 ± 2
GTGGGATTGG	1.01 ± 0.027
GAAAATGTCG	0.988 ± 0.07
TGGGATTTGA	0.993 ± 0.023
TTATCCGGCG	0.986 ± 0.056
TGGCTCTGGG	1.04 ± 0.033
GAATTAGAAA	0.999 ± 0.014
GGGGGTCGGA	1.03 ± 0.043
TTTCGCGATT	2.32 ± 1.7
GAGTAATGGG	1.003 ± 0.0098

Sequence	switch fluorescence ratio
AGTTTCGGTC	1 ± 0.028
AAGATGGAGG	0.973 ± 0.037
TAATGACTTG	0.953 ± 0.031
AGGGGGATCG	0.9794 ± 0.0018
GGGATTTGGG	0.9745 ± 0.0088
TTATTCTTTT	1 ± 0.026
TATAGAAGCG	1.01 ± 0.021
TTTGATCTGT	0.984 ± 0.012
TTATGGGCTT	1.27 ± 0.42
AGGAAAATTT	1 ± 0.047
CAGGTTCTAC	1.015 ± 0.0032
TGGATTACTT	1.02 ± 0.026
TTCGGCTCGA	1.05 ± 0.034
ATATTTTAGC	1.03 ± 0.074
GGTATCAAGT	0.9675 ± 0.0076
TCTTAGGCGC	1.03 ± 0.029
CGGTTGTAGG	0.999 ± 0.015
ACACGGGGCG	0.984 ± 0.066
CGAAAGGGAC	1.033 ± 0.0092
AGGGGGGAGG	0.997 ± 0.026
CATTAGGATA	1.0153 ± 0.00044
AATAAATGAT	1.01 ± 0.022
GCGCAGGTAA	1.04 ± 0.013
TTGGGAATAC	3.23 ± 0.53
AGGAGGTGGC	1.03 ± 0.017

Sequence	switch fluorescence ratio
TTGGTGGGTG	1.01 ± 0.045
CTGTATAAGT	0.985 ± 0.015
TGGGAACGAG	1.01 ± 0.017
TCAGGGGCTG	0.974 ± 0.043
TCAGGGGTCG	1.05 ± 0.056
GGCTGAGGGG	0.972 ± 0.042
TTAGGAATTT	1.05 ± 0.075
AATTTTCTGC	1.01 ± 0.053
CCAGGGGGAT	1.97 ± 1.3
AGCCGGGTAT	1.01 ± 0.016
CCCGAGGGGT	1.019 ± 0.0065
CGTAATGGGG	1.022 ± 0.01
GAAATGGTAG	0.99 ± 0.025
CAAGATTGTG	1.01 ± 0.017
CTCCAGAGGG	2.47 ± 1.8
ACCTTTACGT	1.17 ± 0.033
ACGTTCGCGG	0.985 ± 0.028
GGTATTGGCC	0.987 ± 0.013
ATAAGGGGTG	1.02 ± 0.069
GATGCAAAGG	1.131 ± 0.011
TTATTGCGGA	0.994 ± 0.022
GCGTTTTACT	1.034 ± 0.0051
TACGGGATGG	0.989 ± 0.029
GAGGTCAGTG	0.974 ± 0.019
GGAGGGTTAT	0.995 ± 0.038

Sequence	switch fluorescence ratio
GGTGAAAGCC	0.98 ± 0.049
AGACATTCCT	1.3 ± 0.34
CAGTTATCGT	0.986 ± 0.016
TGGTAAATAT	1.01 ± 0.013
ATAAATGTTA	0.999 ± 0.011
GTTGGTGACG	1.048 ± 0.0055
ATTGTGCATT	0.979 ± 0.052
GGGTTGGGTC	0.996 ± 0.029
AATGGGGAAT	1.25 ± 0.4
TTTGGTTATT	1 ± 0.04
TATCAAAGGG	1.023 ± 0.0067
GCAGTGTCCA	1.01 ± 0.032
TCCGGTAGTT	1.06 ± 0.013
CTTTTAGCTG	1 ± 0.019
TTGTTTGATA	0.9883 ± 0.0073
GGGTGCGGCT	1.11 ± 0.14
CCAGGCGCTA	1.611 ± 0.014
GTGGAAATGG	1.01 ± 0.022
GGTCCAGGTT	1.09 ± 0.068
CTATAAGGG	0.985 ± 0.031
CGATTATAGG	1.003 ± 0.0096
ATGACCGGTT	1.01 ± 0.046
TAATGGAAAA	1.15 ± 0.28
AGGGTGCTCC	1.23 ± 0.33
TTTTCTGTCG	1.06 ± 0.063

Sequence	switch fluorescence ratio
GCCGAGCTCT	0.996 ± 0.024
TTTTTGCCTT	1 ± 0.024
TTTAGGATCC	0.983 ± 0.022
AATAAAAGGG	1 ± 0.03
GCAGGTGTTC	1.14 ± 0.02
GATTTGGCTC	1 ± 0.031
GAGATCGTAT	0.991 ± 0.017
TTGTTCGGCC	0.992 ± 0.035
TTTGTTAGC	1.03 ± 0.019
TTTCGGAGAG	0.989 ± 0.037
AATGTGCTGT	0.983 ± 0.058
TCATACCATT	1 ± 0.024
TTCCCAGCAG	1.68 ± 0.65
TTTGACTTAG	1.02 ± 0.043
AGACTGGGTT	0.971 ± 0.012
TTTGAATTGG	0.996 ± 0.017
TGGGGTAGTT	0.995 ± 0.01
GAGATTGCGC	1.02 ± 0.046
TTGGGCAGCA	0.99411 ± 0.00084
CACTGTGTGG	0.987 ± 0.042
GAAATATCAG	1.01 ± 0.029
GGTATGGAGC	0.971 ± 0.039
GGCCGCCGTC	1 ± 0.019
ACTATTACGG	1.18 ± 0.0094
TCGCGGTCGG	0.997 ± 0.015

— the supplement of paper PMC10126150
